Data: the DeepSol protein solubility set

Experiment: soluble on expression in E. coli; label from the status in PepcDB or PDB records
In the case of “MIIVYTTFPDWESAEKVVKTLLKERMIACANLREHRAFYWWEGKIEEDKEVGAILKTREDLWEELKERIKELHPYDVPAIIRIDVDDVNEDYLKWLIEETKK”, the “soluble on expression in E. coli” value is reported as “soluble”. In the case of “MGLKDWIEAPAAAVVPAKRSKLNWLRGAAARLTTPLLPDDYLHLANPLWSARELRGQIVEVRAETADSATIVIKPGWGFDFDYEPGQYIGIGLHIDGRWHWRSYSLTSPPNWDDKLISIAVKAMPEGFLSSHLVNGVPSGTIVRLATPTGNFALPDPPPERILFLTAGSGITPVMAMLRTMNRRGQLPDVFHVHSAPTDADVMFADELTQLHEEHDDFRCKIQLTRSQGKFALSSLDEVCPDWRERQTWACGPLPMLDEIETLWRDEGIENKLHLERFAVSRADTSGEGGTVTFAKADKTVSVDGATTLLEAGEQVGALMPFGCRMGICQTCVVPILAGHAIDLRSGKQHAEGDRVQTCISAAAGDCTLDA”, the “soluble on expression in E. coli” value is reported as “not soluble”. In the case of “MKDTLMSIQIIPKTPNNDNVIPYVDEAIKIIDESGMHFRVGPLETTVQGNMNECLILIQSLNERMVELECPSIISQVKFYHVPDGITIETLTEKYDELEHHHHHH”, the “soluble on expression in E. coli” value is reported as “soluble”. For “MSLRYIVVGASAAGISGAKTLRELDKDAEIILVSKDENVYSRCILHHYISGHRDIEALDFTDRDFFEKYNIEWKKGLEVKAIDDREHVIVLSNGESLKYDKILLATGASAFIPPVENLREAKNVVGLRNLEDAIKIKEEAEKVKNVVVLGAGLVGIDAIAGLAFKDLNVTLVEMGDRVLPIQLDKYASSKYEKRFEDAGVKLKLGVRAEKVLIDENKNPKALLINTGEEIPCELIIVATGVRSNVAFLKDSSIETDRFGLIINEKGETNARDVYGAGDITGRNPIWPTAVKEGIIAANNMVGNEIFMEDFFGSKNTMNFLGLTTMSLGVVNAPDDSYTEEIDISGENYKKIIHKDGKIYGAIIQGDLSYAGVLTQLIKEKIHVSKVKKPLFEIDYADFFNIKENLEYTYEGHHHHHH”, the “soluble on expression in E. coli” value was “soluble”. With “MAHHHHHHMATAADYVGKNCPYCGAIDSIETDEARGEAACVNCATVVAMGLEENVATRFEKDATYADVDRGGNVGWDPENGGAIGRATARNAGLTREEAAAAAAGLLRHPNAAASVTSAGPFGDTAKYAKTRLHPRMSAQLEVFFRLSRRHDEAILRDAIALAKHFVGFRRERGMRVEHQTEVAAASVMLAAEHLGQPIPLSEMRVLDGTLKDVESRRQEILDATNLGEEMAQMTKQYAPNLIHYYVRLLQLPLICYEMPCLALFRAIRQCESKPDPGASELAVFVEAEKVVMAVLLARTESRLQWPNKPPPPADPSAEPSRAILYSSFASRAHLQPARVEKLMRVAERSVPLIQPEFERLMQTPEFAVAAVHTMGEAVVSMTAKTEDTKSYAPVKSDPIPTSAPSAPNIARGNRKRSRSRSTTPQVPPSSASQER” the “soluble on expression in E. coli” value was “not soluble”. With “MSDALTLTAAKKNARNRIRAARLARSTADLHADNAAILNQLTALIRTINATRAAAYMPEVTEPGGVDFADNLTGILSELWIPKSLPNRQLVWGHYSGGDSVERGTFGILEPTTPSRSSDILHDVDLIIVPALGITPSGRRLGQGAGYYDRALAGVATPTVAILFDSEVNTTIPFEPHDATCDWIITPEGTKQVT” the “soluble on expression in E. coli” value was “not soluble”. With “MSAVLTAEDTLVLASTATPVEMELIMGWLGQQRARHPDSKFDILKLPPRNAPPAALTALVEQLEPGFASSPQSGEDRSIVPVRVIWLPPADRSRAGKVAALLPGRDPYHPSQRQQRRILRTDPRRARVVAGESAKVSELRQQWRDTTVAEHKRDFAQFVSRRALLALARAEYRILGPQYKSPRLVKPEMLASARFRAGLDRIPGATVEDAGKMLDELSTGWSQVSVDLVSVLGRLASRGFDPEFDYDEYQVAAMRAALEAHPAVLLFSHRSYIDGVVVPVAMQDNRLPPVHMFGGINLSFGLMGPLMRRSGMIFIRRNIGNDPLYKYVLKEYVGYVVEKRFNLSWSIEGTRSRTGKMLPPKLGLMSYVADAYLDGRSDDILLQGVSICFDQLHEITEYAAYARGAEKTPEGLRWLYNFIKAQGERNFGKIYVRFPEAVSMRQYLGAPHGELTQDPAAKRLALQKMSFEVAWRILQATPVTATGLVSALLLTTRGTALTLDQLHHTLQDSLDYLERKQSPVSTSALRLRSREGVRAAADALSNGHPVTRVDSGREPVWYIAPDDEHAAAFYRSSVIHAFLETSIVELALAHAKHAEGDRVAAFWAQAMRLRDLLKFDFYFADSTAFRANIAQEMAWHQDWEDHLGVGGNEIDAMLYAKRPLMSDAMLRVFFEAYEIVADVLRDAPPDIGPEELTELALGLGRQFVAQGRVRSSEPVSTLLFATARQVAVDQELIAPAADLAERRVAFRRELRNILRDFDYVEQIARNQFVAREFKARQGRDRILEHHHHHH” the “soluble on expression in E. coli” value was “not soluble”. With “GDAAKGEKEFNKCKTCHSIIAPDGTEIVKGAKTGPNLYGVVGRTAGTYPEFKYKDSIVALGASGFAWTEEDIATYVKDPGAFLKEKLDDKKAKTEMAFKLAKGGEDVAAYLASVVK” the “soluble on expression in E. coli” value was “soluble”. With “MSLKVGLKLLQTPKESMLFNIDSYKIIGIGISRGNEKYMKSTICVARNIFTNGILVGSFEGILGGRTARLCSYKFVDYFLNKVSNKVVQESIEESLISTFQRLNEKIKEKNLNDVSSGLVYVFYNKILYFAQCGSIKSYIISNSNIKEIGFDHCLSNNEMKKKIMQKGGLVDNNNMLNGVINVCKCIGESNYHNLLNTTPDITKIEYDDDFKFVLTASKSVWDVIDQNELQSIVINSAHIQPPGIANLIRNIALERNCKGNISVTILSLDSEGHHHHHH” the “soluble on expression in E. coli” value was “soluble”. With “MAYNLKEVAKKPERLTGGHRMCAGCGAPIVVRQVLKALKPEDHAVISAATGCLEVSTFIYPYTAWKDSFIHSAFENTGATISGAEAAYKVLKKKGKIEGETKFIAFGGDGGTYDIGLQALSGAMERGHDMVYVCYDNGAYMNTGIQRSSATPKYADTTTSPVGKKIPGKMQPRKDLTEVLVNHRIPYVAQTAPFGNMKDLYEKAEKAIYTPGPAFLNVLAPCPRGWRYNTPDLMELSKLAVETCFWPLYEVIDGKYIINYKPKEKVPVKEFLKLQGRFKHLFKAGNEYMLEEIQKEVDLRWERLLKLAGEA” the “soluble on expression in E. coli” value was “not soluble”. With “QVRLVESGGGVVQPGGSLRLSCEGSGFKFGDHGIHWVRQAPGEGLQWLTVISSDGTDERYTDSVKGRFTISRDNSKNTMSLQMNNLRPEDMGLYYCARDGKCGGGRCYSGLLDYWGQGTMVTVSSASFKGPSVFPLAPSSKSTSGGTAALGCLVKDYFPEPVTVSWNSGALTSGVHTFPAVLQSSGLYSLSSVVTVPSSSLGTQTYICNVNHKPSNTKVDKKVEPKSCDKTHTGLEHHHHHH” the “soluble on expression in E. coli” value was “soluble”. With “MIRVHSYESMGTFDGPGLRLVVFLQGCNFRCLYCANPDTIDTKGESTETAIDEIVRMAVSQKAFFGKKGGVTFSGGEPTLQAKALIPLFQRLKEQNIHICIDTNGSIWNEEVEELLKWTDLVLLDIKEFNNVRHRQLTERSNEQTIRTAEWLEKNGKPFWLRYVLVPGYSSFEEDIRALGEHFKNYHMIQRVEILPYHTLGVHKYEAMGKEYKLNGIKENTLEQLETAKTLFGEYFNTVYLN” the “soluble on expression in E. coli” value was “not soluble”. In the case of “MGSDKIHHHHHHMAAILPARITKVLPDSIAAEIGFEAGDALVAINGVQPRDLIDYKFLCSDEFLELEVLDASGKTHHIEIEKDYDEDLGLEFETALFDGLIQCNNRCPFCFIDQQPPGKRSSLYLKDDDYRLSFLYGSYLTLTNLPEREWQRIEQMRLSPLYVSVHATEPEVRIRLLKNQRAAQILDQLRWFQARRLQIHAQVVVCPGINDGKHLEQTLRDLASFHDGDVPTVASVAVVPVGLTRFRPEEDELIPVTREKAQEVIAQVRSLTQEFRRQFGSNVAWLADEWFLIAGEELPSEAEYEEYPQIDNGVGSIRLFLKQFAETAAELLPTKINHPKKLTWVVGNAVEKAFQPILKSLNAVEGLEINMCALSSDYWGQTISVTGLITGHDLLLHLKEQDLGGGILLPNVMLKHGELVFLDDMSVEEVAQKLHTKIIPIAGVKELIKTCITDSVSV”, the “soluble on expression in E. coli” value is reported as “not soluble”. With “MPVLHNRISNDALKAKMLAESEPRTTISFYKYFHIADPKATRDALYQLFTALNVFGRVYLAHEGINAQISVPASNVETFRAQLYAFDPALEGLRLNIALDDDGKSFWVLRMKVRDRIVADGIDDPHFDASNVGEYLQAAEVNAMLDDPDALFIDMRNHYEYEVGHFENALEIPADTFREQLPKAVEMMQAHKDKKIVMYCTGGIRCEKASAWMKHNGFNKVWHIEGGIIEYARKAREQGLPVRFIGKNFVFDERMGERISDEIIAHCHQCGAPCDSHTNCKNDGCHLLFIQCPVCAEKYKGCCSEICCEESALPPEEQRRRRAGRENGNKIFNKSRGRLNTTLCIPDPTELEHHHHHH” the “soluble on expression in E. coli” value was “soluble”. For “MGSDKIHHHHHHMNWLNLRAIVPSDKQNMPNKKNKAAFARTVTKNGAPDVSDIKNSYDDLMYESGAFSQTAINNLEARARLMGLQPAPAANAKVLELGCSMGGNIITQALYYPDAEFTGIDLSGRQVAQGNAIIEKMGLKNVRLEEKDILTVDESFGKFDYIIVHGIWSWVPDAVKDKIFSICRNNLTEHGIAYISYNVYPGWKRQEQLREIMQFSGRDVLEEPLEARTRKGLDALKALAEILENDKGLGGGGKLPAIQKILNHNFYYIAHEYMEAFNDPIYVNGFIEWANRHRLAYIGDTDLHVSFVSWMAEHTRERILALAGGDYIAKEFYSDILSDRQFRRSLLCREEVGDTVRRDESVAVEVIESLNFRPARGETINFDENDTLLSGIRDVMKTGEPFKTEDVAENLARRFPGLTFDRMKINSQLLLQTILGRFSVSSDNAGKPFFEDHKTYVPARFTDYVAAFVEHGAEAFVRPANRYNESTPSFGYGHLYIMRQLSRPTSKQAVIDAVAENLNIVSTTPDGLTFHPPAEVYVEEILADLADRHFLVSAD”, the “soluble on expression in E. coli” value was “not soluble”. In the case of “MGSDKIHHHHHHMKAVILAAGRGSRLQALTDERPKALVPFNGVPLLQRAIETLRRCDVSEVGIVAGYRSEMLAPFADTLFYNHRWHSSGIFSSLNCASDWLSAEPCLVSYGDIFYDSTLVSELINHPADIVLGYDPAAVRLWQQRFNDPLPDLENFRLVDGWVSAIGQTATSLEVIQGQYMGLFKVTPAGWQALKKQLQGLTPQARDQTDMTSLLGTLVSEGFPVAGVATHAPWGEIDCPSDVALYERIYPDR”, the “soluble on expression in E. coli” value is reported as “not soluble”. For “MSLTAHGLCEFIDASPSPFHVCATVAGRLLGAGYRELREADRWPDKPGRYFTVRAGSLVAWNAEQSGHTQVPFRIVGAHTDSPNLRVKQHPDRLVAGWHVVALQPYGGVWLHSWLDRDLGISGRLSVRDGTGVSHRLVLIDDPILRVPQLAIHLAEDRKSLTLDPQRHINAVWGVGERVESFVGYVAQRAGVAAADVLAADLMTHDLTPSALIGASVNGTASLLSAPRLDNQASCYAGMEALLAVDVDSASSGFVPVLAIFDHEEVGSASGHGAQSDLLSSVLERIVLAAGGTREDFLRRLTTSMLASADMAHATHPNYPDRHEPSHPIEVNAGPVLKVHPNLRYATDGRTAAAFALACQRAGVPMQRYEHRADLPCGSTIGPLAAARTGIPTVDVGAAQLAMHSARELMGAHDVAAYSAALQAFLSAELSEAEGHHHHHH”, the “soluble on expression in E. coli” value was “not soluble”. For “MAPSSLSQSFDHAAQTPEIFEKVPSRTVGRKATITKEELFQAALNLIGPEKSISSLSLREVAREAGIAPNSFYRHFRDIDELAIDLINRAGLVLRHIIRESRLQASKQNSIIRSSVEVFIQQLDADEGNLSLLLREAYTGSKSYKEAVERQLNFFQQELQEDLIRLERLNHSRLSHPDLVARAITQLVFTMGAKVLDLPINQRTAVAEQTMIMIRMILEGARHLDESKIR”, the “soluble on expression in E. coli” value was “soluble”. For “MGSDKIHHHHHHFGKQSKPTPNFAKKSDAYSADDDRVPNLVDDDEEEIIGDEEDDVNQPGPSGSQSNPEPQDEEENAEQQSANSSQSSAAEEEDDEHVVPENEPVKPTEEFAKKSPKNTGGAKRRTARRGD”, the “soluble on expression in E. coli” value was “not soluble”.
